Results: US20180185504A1 (Regeneron, published 2018)

T1: human prolactin receptor (PRLR) (human, UniProt P16471 25-622)
T1 sequence: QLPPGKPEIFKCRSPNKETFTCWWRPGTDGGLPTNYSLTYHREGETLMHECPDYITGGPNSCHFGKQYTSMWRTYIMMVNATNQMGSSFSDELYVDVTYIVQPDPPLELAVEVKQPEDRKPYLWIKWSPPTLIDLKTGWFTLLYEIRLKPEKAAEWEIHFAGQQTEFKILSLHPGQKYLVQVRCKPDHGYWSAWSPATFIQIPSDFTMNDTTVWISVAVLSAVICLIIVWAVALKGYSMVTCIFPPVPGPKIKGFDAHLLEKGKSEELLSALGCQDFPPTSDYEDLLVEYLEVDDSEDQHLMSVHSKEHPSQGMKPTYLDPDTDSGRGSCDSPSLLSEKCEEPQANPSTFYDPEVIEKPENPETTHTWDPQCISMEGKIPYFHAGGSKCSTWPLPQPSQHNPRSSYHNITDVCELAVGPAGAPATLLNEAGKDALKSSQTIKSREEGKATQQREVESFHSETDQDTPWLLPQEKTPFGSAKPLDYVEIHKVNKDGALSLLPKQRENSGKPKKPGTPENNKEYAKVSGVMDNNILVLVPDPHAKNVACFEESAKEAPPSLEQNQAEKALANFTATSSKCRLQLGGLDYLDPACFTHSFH

B1: H1H6975N-DM1 (antibody, human IgG1, V domains shown)
VH: EVHLVESGGGLVQPGGSLRLSCAASGFTFSSYEMNWVRQTPGKGLEWISHISSRSVIIYYADSVKGRFTISRDNAKNSLFLQMNSLRAEDTAVYFCAGITIFGIPEYWGQGTLVTVSS
VL: EIVLTQSPATLSLSPGERATLSCRASQSVSSYFAWYQQKPGQAPRLLIYDASSRATGIPTRFSGSGSGTDFTLTISSLEPEDFAVYYCQQRSSWPITFGQGTRLEIK
modifications: DM1 conjugated through SMCC linker; attachment residues not stated
B2: H1H6765P-DM1 (antibody, human IgG1, V domains shown)
VH: EVQLVESGGGVVRPGGSLRLSCVGSGFSFDDHGMNWVRQGPGKGLEWVSGFNWNGGSTNYAESVKGRFTISRDNARNSLFLQMNSLRAEDTALYYCVRGRSGWFNDAFDVWGPGTMVTVSS
VL: EIVLTQSPGTLSLSPGERATLSCRASQTINSNYLAWYRQKPGQTPRLLIYGTSSRATGIPDRFSGSGSGTDFSLTISRLEPEDFAVFYCQQYAGLPTFGPGTKVDIK
modifications: DM1 conjugated through SMCC linker; attachment residues not stated
B3: H1H6953N-mc-VC-PAB-MMAE (antibody, human IgG1, V domains shown)
VH: EVQLLESGGGLVQPGGTLRLSCAASGFTFSAYAMSWVRQAPGKGLEWVSSINVRAGDTYYADSVKGRFTISRDNSKNTLFLLMNSLRAEDTAAYYCAKARYSSNWGFDFWGQGTLVTVSS
VL: DIVMTQSPDSLTVSLGARTTINCQSSQTILHSSNNHNYLAWYQQKPGLPPKLLIYWSSTRESGVPDRFSGSGSGTDFTLTISSLQAEDVAIYYCQQYSNTPYTFGQGTKLEIN
modifications: MMAE conjugated through cleavable mc-vc-PAB linker; attachment residues not stated
B4: H1H6958N2-mc-VC-PAB-MMAE (antibody, human IgG1, V domains shown)
VH: QVQLVESGGGVVQPGRSLRLSCGASGFTFRNYGMQWVRQGPGKGLEWVTLISFDGNDKYYADSVKGRFTISRDNSKNTLFLQMNSLRTEDTAVYYCARGGDFDYWGQGTLVTVSS
VL: DIQMTQSPSSLSASVGDRVTITCRASQDIRKDLGWYQQKPGKAPKRLIYAASSLHSGVPSRFSGSGSGTEFTLTISSLQPEDFATYYCLQHNSYPMYTFGQGTKLEIK
modifications: MMAE conjugated through cleavable mc-vc-PAB linker; attachment residues not stated
B5: H1H6765P-mc-VC-PAB-MMAE (antibody, human IgG1, V domains shown)
VH: B2 VH
VL: B2 VL
modifications: MMAE conjugated through cleavable mc-vc-PAB linker; attachment residues not stated
B6: H1H6953N-mc-VC-PAB-MeNHC3-May (antibody, human IgG1, V domains shown)
VH: B3 VH
VL: B3 VL
modifications: MeNHC3-May conjugated through mc-VC-PAB linker; attachment residues not stated
B7: H1H6958N2-SPDB-DM4 (antibody, human IgG1, V domains shown)
VH: B4 VH
VL: B4 VL
modifications: DM4 conjugated through SPDB linker; attachment residues not stated
B8: H1H6782P-mc-VC-PAB-MMD (antibody, human IgG1, V domains shown)
VH: EVQLVESGGGLVQPGRSLRLSCAASGFTFDDYAMHWVRQAPGKGLEWVSGIIWNSGHIGYGDSVKGRFTISRDNAKKSLYLQMNSLRAEDTALYYCARDSGRYQSYFDYWGQGTLVTVSS
VL: DIQMTQSPSTLSASVGDRVTITCRASHIISSWLAWYQQKPGKAPKVLIFKASSLESGVPSRFSGSGSGTEFTLTISSLQPDDFATYYCQQYNTYSRTFGQGTKVEIK
modifications: MMD conjugated through mc-VC-PAB linker; attachment residues not stated
B9: H1H6782P-mc-VC-PAB-MeNHC3-May (antibody, human IgG1, V domains shown)
VH: B8 VH
VL: B8 VL
modifications: MeNHC3-May conjugated through mc-VC-PAB linker; attachment residues not stated
B10: H1H6975P-mc-VC-PAB-MMD (antibody, human IgG1, V domains shown)
VH: B1 VH
VL: B1 VL
modifications: MMD conjugated through mc-VC-PAB linker; attachment residues not stated

These binders were tested against T1, human prolactin receptor (PRLR) (assay: cell-based or functional assay).

Binder | % Kill, PC3/PRLR cells [%] | IC50, cell viability, PC3/PRLR cells [nM]
B1 | 68 | 2.7
B2 | 70 | 0.57

Molecular target: T1, human prolactin receptor (PRLR)
Experiment: cell-based or functional assay
Remark: another data set of the same source

Binder | % Kill, MCF7/PRLR cells [%] | % Kill, MCF7 cells [%] | % Kill, T47D cells [%] | IC50, cell viability, MCF7/PRLR cells [nM] | IC50, cell viability, MCF7 cells [nM] | IC50, cell viability, T47D cells [nM]
B1 | 87 | 73 | 80 | 0.49 | 150 | 6.9
B2 | 84 | 68 | 78 | 0.18 | 150 | 1.63

Molecular target: T1, human prolactin receptor (PRLR)
Experiment: cell-based or functional assay
Remark: another data set of the same source

Binder | % Kill, MCF7/ATCC cells [%] | % Kill, MCF7/PRLR cells [%] | % Kill, PC3/hPRLR cells [%] | IC50, cell viability, MCF7/ATCC cells [nM] | IC50, cell viability, MCF7/PRLR cells [nM] | IC50, cell viability, PC3/hPRLR cells [nM]
B3 | 42 | 85 | 80 | 150 | 0.1 | 0.2
B4 | 53 | 88 | 82 | 150 | 0.2 | 0.5
B2 | 71 | 81 | 83 | 90 | 0.1 | 0.3
B5 | 38 | 86 | 85 | 150 | 0.2 | 0.4

Molecular target: T1, human prolactin receptor (PRLR)
Experiment: cell-based or functional assay
Remark: another data set of the same source

Binder | % Kill, T47D cells [%] | IC50, cell viability, T47D cells [nM]
B3 | 80 | 1
B6 | 90 | 1
B4 | 90 | 1
B7 | 100 | 1
B8 | 90 | 2
B9 | 90 | 2
B1 | 100 | 2
B10 | 90 | 3
B2 | 90 | 1
B5 | 90 | 1

Molecular target: T1, human prolactin receptor (PRLR)
Experiment: cell-based or functional assay
Remark: another data set of the same source

Binder | % Kill, MCF7/ATCC cells [%] | % Kill, MCF7/PRLR cells [%] | IC50, cell viability, MCF7/ATCC cells [nM] | IC50, cell viability, MCF7/PRLR cells [nM]
B3 | 40 | 85 | 150 | 0.1
B6 | 60 | 80 | 150 | 0.2
B4 | 50 | 90 | 150 | 0.2
B7 | 80 | 90 | 25 | 0.8
B8 | 50 | 90 | 200 | 0.3
B9 | 50 | 80 | 250 | 0.2
B1 | 70 | 80 | 200 | 0.2
B10 | 50 | 90 | 150 | 0.2
B2 | 70 | 90 | 150 | 0.3
B5 | 40 | 90 | 150 | 0.2
